Data set [1] deals with T1, RAD52(209) (human, UniProt P43351 1-209).
T1 sequence: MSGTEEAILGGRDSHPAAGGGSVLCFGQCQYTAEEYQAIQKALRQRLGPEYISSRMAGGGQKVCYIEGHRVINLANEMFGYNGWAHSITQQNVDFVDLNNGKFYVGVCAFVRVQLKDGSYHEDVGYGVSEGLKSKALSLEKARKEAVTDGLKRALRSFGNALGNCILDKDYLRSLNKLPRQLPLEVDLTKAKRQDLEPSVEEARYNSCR
Put plainly: EMSA; 25 C; Hill 1.6 ± 0.3; EMSA: 25 mM Tris-acetate, 2 mM Mg(OAc)2, 1 mM DTT, pH 7.5, 10 nM ssDNA, 25 C 10 min or 37 C 5 min; mass photometry: 20 mM Tris-HCl, 50 mM NaCl, pH 7.5. Particulars: protein: recombinant; tags: His-tag (pET-15b); chain copies: 11. For orientation: A gel shift assay detects complexes by their altered migration in electrophoresis.

For data set [2], the target named is T2, RAD52 full length (human, UniProt P43351 1-418).
T2 sequence: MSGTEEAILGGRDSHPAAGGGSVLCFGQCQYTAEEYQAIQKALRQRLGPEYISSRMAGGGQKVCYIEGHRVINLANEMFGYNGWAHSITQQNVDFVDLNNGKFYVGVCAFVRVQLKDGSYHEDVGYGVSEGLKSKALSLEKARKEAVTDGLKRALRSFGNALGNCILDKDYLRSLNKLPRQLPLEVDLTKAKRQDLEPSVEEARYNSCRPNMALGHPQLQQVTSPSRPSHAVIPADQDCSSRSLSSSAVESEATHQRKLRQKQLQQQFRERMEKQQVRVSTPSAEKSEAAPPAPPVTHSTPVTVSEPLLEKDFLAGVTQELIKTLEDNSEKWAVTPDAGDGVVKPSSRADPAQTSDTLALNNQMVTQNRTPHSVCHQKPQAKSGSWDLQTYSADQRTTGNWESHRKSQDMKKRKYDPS
In words: EMSA; 25 C; Hill fixed at 1; EMSA: 25 mM Tris-acetate, 2 mM Mg(OAc)2, 1 mM DTT, pH 7.5, 10 nM ssDNA, 25 C 10 min or 37 C 5 min; mass photometry: 20 mM Tris-HCl, 50 mM NaCl, pH 7.5. To be noted: protein: recombinant; tags: His-tag (pET-15b).

Data set [3] concerns the target T2, RAD52 full length. In words: EMSA; 37 C; Hill 3.3 ± 0.2; EMSA: 25 mM Tris-acetate, 2 mM Mg(OAc)2, 1 mM DTT, pH 7.5, 10 nM ssDNA, 25 C 10 min or 37 C 5 min; mass photometry: 20 mM Tris-HCl, 50 mM NaCl, pH 7.5. Particulars: protein: recombinant; tags: His-tag (pET-15b).
The target in data set [4] is T1, RAD52(209). Put plainly: EMSA; 37 C; Hill 4.1 ± 0.4; EMSA: 25 mM Tris-acetate, 2 mM Mg(OAc)2, 1 mM DTT, pH 7.5, 10 nM ssDNA, 25 C 10 min or 37 C 5 min; mass photometry: 20 mM Tris-HCl, 50 mM NaCl, pH 7.5. To be noted: protein: recombinant; tags: His-tag (pET-15b); chain copies: 11.
Data set [5] deals with T2, RAD52 full length. Put plainly: EMSA; 25 C; Hill 1.4 ± 0.2; EMSA: 25 mM Tris-acetate, 2 mM Mg(OAc)2, 1 mM DTT, pH 7.5, 10 nM ssDNA, 25 C 10 min or 37 C 5 min; mass photometry: 20 mM Tris-HCl, 50 mM NaCl, pH 7.5. Particulars: protein: recombinant; tags: His-tag (pET-15b).
Data set [6] concerns the target T1, RAD52(209). In words: EMSA; 25 C; Hill 1.5 ± 0.2; EMSA: 25 mM Tris-acetate, 2 mM Mg(OAc)2, 1 mM DTT, pH 7.5, 10 nM ssDNA, 25 C 10 min or 37 C 5 min; mass photometry: 20 mM Tris-HCl, 50 mM NaCl, pH 7.5. To be noted: protein: recombinant; tags: His-tag (pET-15b); chain copies: 11.
Data set [7] has as its target T2, RAD52 full length. In words: EMSA; 37 C; Hill 2.7 ± 0.2; EMSA: 25 mM Tris-acetate, 2 mM Mg(OAc)2, 1 mM DTT, pH 7.5, 10 nM ssDNA, 25 C 10 min or 37 C 5 min; mass photometry: 20 mM Tris-HCl, 50 mM NaCl, pH 7.5. Particulars: protein: recombinant; tags: His-tag (pET-15b).
The target in data set [8] is T1, RAD52(209). Put plainly: EMSA; 37 C; Hill 3.1 ± 0.5; EMSA: 25 mM Tris-acetate, 2 mM Mg(OAc)2, 1 mM DTT, pH 7.5, 10 nM ssDNA, 25 C 10 min or 37 C 5 min; mass photometry: 20 mM Tris-HCl, 50 mM NaCl, pH 7.5. Particulars: protein: recombinant; tags: His-tag (pET-15b); chain copies: 11.
Data set [9] deals with the molecule itself. Put plainly: mass photometry; single 60-s reading at 200 nM protein, label-free, adsorbed on glass; Buffer 1 (20 mM Tris-HCl, 50 mM NaCl, pH 7.5); stock diluted to 1 uM, then to the final concentration, measured directly after dilution; size of the oligomers.
The target of data set [10] is T1, RAD52(209). In words: mass photometry; 100 nM protein, 10 nM DNA; ring shift 40 ± 4 kDa; EMSA: 25 mM Tris-acetate, 2 mM Mg(OAc)2, 1 mM DTT, pH 7.5, 10 nM ssDNA, 25 C 10 min or 37 C 5 min; mass photometry: 20 mM Tris-HCl, 50 mM NaCl, pH 7.5. To be noted: protein: recombinant; tags: His-tag (pET-15b); chain copies: 11.
Data set [11] deals with the molecule itself. In words: mass photometry; concentration series 10 to 200 nM protein, cumulative histograms from four measurements; Buffer 1 (20 mM Tris-HCl, 50 mM NaCl, pH 7.5); linear fits and a global fit of noncooperative (isodesmic) assembly coupled with preferential cyclization; Kd is that of a monomer associating with an oligomer of n subunits.
The target of data set [12] is T1, RAD52(209). Put plainly: mass photometry; 100 nM protein, 10 nM DNA; ring shift 32 ± 2 kDa; EMSA: 25 mM Tris-acetate, 2 mM Mg(OAc)2, 1 mM DTT, pH 7.5, 10 nM ssDNA, 25 C 10 min or 37 C 5 min; mass photometry: 20 mM Tris-HCl, 50 mM NaCl, pH 7.5. To be noted: protein: recombinant; tags: His-tag (pET-15b); chain copies: 11.

Where “and” joins values, the source holds several entries; their conditions need not be identical. Identical values can stand only once.

B1: 70 nt (ssDNA)
DNA: TTTAATAATTTACTTTATTTTCTATGTCTATTCATTTACTTATTGTGTATTATCCTTATACTTACTTAC
Take B1: the Kd with RAD52(209) [1] was 109 ± 23 nM; in the data set with RAD52 full length [2], 53 ± 8 nM.

B2: 60 nt (ssDNA)
DNA: TCCTTTTGATAAGAGGTCATTTTTGCGGATGGCTTAGAGCTTAATTGCTTTTTTTTTTTT
As to B2, the Kd was 112.4 ± 0.1 nM with RAD52 full length [3] and 127 ± 10 nM with RAD52(209) [4].

B3: 32 nt (ssDNA)
DNA: GCTCTAAGCCATCCGCAAAAATGACCTCTTAT
B3: the Kd turned out to be 115 ± 22 nM with RAD52 full length [5], 169 ± 24 nM with RAD52(209) [6], 135 ± 4 nM with RAD52 full length [7] and 246 ± 33 nM with RAD52(209) [8].

B4: RAD52(209), human RAD52 truncated after amino acid 209 (domain or fragment, UniProt P43351 1-209, looked up)
chain: MSGTEEAILGGRDSHPAAGGGSVLCFGQCQYTAEEYQAIQKALRQRLGPEYISSRMAGGGQKVCYIEGHRVINLANEMFGYNGWAHSITQQNVDFVDLNNGKFYVGVCAFVRVQLKDGSYHEDVGYGVSEGLKSKALSLEKARKEAVTDGLKRALRSFGNALGNCILDKDYLRSLNKLPRQLPLEVDLTKAKRQDLEPSVEEARYNSCR
notes: Expressed from pET-15b (plasmid a gift of S. C. West); No tag cleavage is described; The entry describes the protomer; also called C-terminally truncated RAD52; source: E. coli BL21(DE3) with pRARE, purified (Ni-NTA, size-exclusion chromatography)
Regarding B4, the “stoichiometry N” value in [9] was found to be 11.

B5: 83 nt (ssDNA)
DNA: TTTATATAATTTACTTTATTTTCTATGTCTATTCATTTACTTATTGTGTATTATCCTTATACTTACTTACTTTATGTTTATTT
Regarding B5, the binding result with RAD52(209) [10] is “binds”.

B6: full-length human RAD52 (natural protein, UniProt P43351 1-418, looked up)
chain: MSGTEEAILGGRDSHPAAGGGSVLCFGQCQYTAEEYQAIQKALRQRLGPEYISSRMAGGGQKVCYIEGHRVINLANEMFGYNGWAHSITQQNVDFVDLNNGKFYVGVCAFVRVQLKDGSYHEDVGYGVSEGLKSKALSLEKARKEAVTDGLKRALRSFGNALGNCILDKDYLRSLNKLPRQLPLEVDLTKAKRQDLEPSVEEARYNSCRPNMALGHPQLQQVTSPSRPSHAVIPADQDCSSRSLSSSAVESEATHQRKLRQKQLQQQFRERMEKQQVRVSTPSAEKSEAAPPAPPVTHSTPVTVSEPLLEKDFLAGVTQELIKTLEDNSEKWAVTPDAGDGVVKPSSRADPAQTSDTLALNNQMVTQNRTPHSVCHQKPQAKSGSWDLQTYSADQRTTGNWESHRKSQDMKKRKYDPS
notes: RAD52, human, full length; Expressed from pET-15b (plasmid a gift of W. Kagawa); No tag cleavage is described; The entry describes the protomer; the oligomer size varies with concentration; source: E. coli BL21(DE3) with pRARE, purified (Ni-NTA, size-exclusion chromatography)
With B6, the “stoichiometry N” value in [9] is 8 protomers to 12 protomers (2×) and 10. Further, in data set [11], binding was put at a Kd of 14 ± 2 nM; the “stoichiometry N” value is 10.6 protomers per ring and 7 protomers to 13 protomers (2×).

B7: 48 nt unlabeled (ssDNA)
DNA: GCAATTAAGCTCTAAGCCATCCGCAAAAATGACCTCTTATCAAAAGGA
With B7, the binding result with RAD52(209) [12] was “binds”.

Usually Kd stands for a measure of binding affinity in units of concentration. Usually stoichiometry N stands for a count of units in the complex or per binding partner.
